B1: Protein boule-like (Homo sapiens), Q8N9W6 (parent)
chain: MQTDSLSPSPNPVSPVPLNNPTSAPRYGTVIPNRIFVGGIDFKTNESDLRKFFSQYGSVKEVKIVNDRAGVSKGYGFVTFETQEDAQKILQEAEKLNYKDKKLNIGPAIRKQQVGIPRSSIMPAAGTMYLTTSTGYPYTYHNGVAYFHTPEVTSVPPPWPSRSVCSSPVMVAQPIYQQPAYHYQATTQYLPGQWQWSVPQPSASSAPFLYLQPSEVIYQPVEIAQDGGCVPPPLSLMETSVPEPYSDHGVQATYHQVYAPSAITMPAPVMQPEPIKTVWSIHY
partner: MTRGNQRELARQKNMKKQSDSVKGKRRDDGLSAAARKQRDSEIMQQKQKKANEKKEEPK
B2: Zinc finger and SCAN domain-containing protein 9 (Homo sapiens), O15535 (parent)
chain: MNTNSKEVLSLGVQVPEAWEELLTMKVEAKSHLQWQESRLKRSNPLAREIFRRHFRQLCYQETPGPREALTRLQELCYQWLRPHVSTKEQILDLLVLEQFLSILPKELQGWVREHCPESGEEAVILLEDLERELDEPQHEMVAHRHRQEVLCKEMVPLAEQTPLTLQSQPKEPQLTCDSAQKCHSIGETDEVTKTEDRELVLRKDCPKIVEPHGKMFNEQTWEVSQQDPSHGEVGEHKDRIERQWGNLLGEGQHKCDECGKSFTQSSGLIRHQRIHTGERPYECNECGKAFSRSSGLFNHRGIHNIQKRYHCKECGKVFSQSAGLIQHQRIHKGEKPYQCSQCSKSYSRRSFLIEHQRSHTGERPHQCIECGKSFNRHCNLIRHQKIHTVAELV
B3: Ribose-phosphate pyrophosphokinase 1 (Homo sapiens), P60891 (parent)
chain: MPNIKIFSGSSHQDLSQKIADRLGLELGKVVTKKFSNQETCVEIGESVRGEDVYIVQSGCGEINDNLMELLIMINACKIASASRVTAVIPCFPYARQDKKDKSRAPISAKLVANMLSVAGADHIITMDLHASQIQGFFDIPVDNLYAEPAVLKWIRENISEWRNCTIVSPDAGGAKRVTSIADRLNVDFALIHKERKKANEVDRMVLVGDVKDRVAILVDDMADTCGTICHAADKLLSAGATRVYAILTHGIFSGPAISRINNACFEAVVVTNTIPQEDKMKHCSKIQVIDISMILAEAIRRTHNGESVSYLFSHVPL
B4: IQ motif and ubiquitin-like domain-containing protein (Homo sapiens), Q8NA54 (parent)
chain: MSNQQEKYEAQNIVNSTEESDDAFDTVTIPVPSEEPQESDQTEEHESGIEQFSESHAIHVEEQSDQSFSSLEPDNEQLMEEVISPRQVSYTPQHHEKQYAMQRPNDDSLAFLDKIKSVKESLQESVEDSLATVKVVLIPVGQEIVIPFKVDTILKYLKDHFSHLLGIPHSVLQIRYSGKILKNNETLVQHGVKPQEIVQVEIFSTNPDLYPVRRIDGLTDVSQIITVTVQTGLDQYQQVPVEIVKSDFHKPFLGGFRHKVTGVEYHNAGTQTVPKRIPERLSIFCRDTQTVFQKKNLQQTTNTTSTQMTNIGVYVSNMTDKLVTPGKYFSAAEYHAQRLKAVIVIQTYYRQWHAKIFVENLRRQKSLRLEWETQQELRKIREKEEWIKLDYHRRHNPKTNEDFEFLYNALEFWRQEELTRINQSFTGAERKAALCELLEKETQIIASIGRHRYIAYMANQEAAIQAFLDKCSAPKIWRTPNGKTIEMDTQFTIRARELQNIYKCIMLKNISQDERLDVLLTLKHTVKEHECKLTQEILELIDREVDLMMRGVKHHNLEGLRKRIATLFFHYIKTPLFNPEVAKYLKVPQDPLKFYKKIYFCHSCQLYLPSTEFSVSSTSRRIYRCRNCINLQNEAQKRESFLKYKCLLQQLYYTEADYEDDSKIAFLMQLQDIQYLTENIWASQSVLSACDNLSDLVMVRWNKSLEWSPWNCILLTKDEAAAHLKLTSIEEGYERSFIHKIKHKHILAKNYFSQVPVLASFILDDGEIDEIRWKYHSDTTPKIIESQRPPH
partner: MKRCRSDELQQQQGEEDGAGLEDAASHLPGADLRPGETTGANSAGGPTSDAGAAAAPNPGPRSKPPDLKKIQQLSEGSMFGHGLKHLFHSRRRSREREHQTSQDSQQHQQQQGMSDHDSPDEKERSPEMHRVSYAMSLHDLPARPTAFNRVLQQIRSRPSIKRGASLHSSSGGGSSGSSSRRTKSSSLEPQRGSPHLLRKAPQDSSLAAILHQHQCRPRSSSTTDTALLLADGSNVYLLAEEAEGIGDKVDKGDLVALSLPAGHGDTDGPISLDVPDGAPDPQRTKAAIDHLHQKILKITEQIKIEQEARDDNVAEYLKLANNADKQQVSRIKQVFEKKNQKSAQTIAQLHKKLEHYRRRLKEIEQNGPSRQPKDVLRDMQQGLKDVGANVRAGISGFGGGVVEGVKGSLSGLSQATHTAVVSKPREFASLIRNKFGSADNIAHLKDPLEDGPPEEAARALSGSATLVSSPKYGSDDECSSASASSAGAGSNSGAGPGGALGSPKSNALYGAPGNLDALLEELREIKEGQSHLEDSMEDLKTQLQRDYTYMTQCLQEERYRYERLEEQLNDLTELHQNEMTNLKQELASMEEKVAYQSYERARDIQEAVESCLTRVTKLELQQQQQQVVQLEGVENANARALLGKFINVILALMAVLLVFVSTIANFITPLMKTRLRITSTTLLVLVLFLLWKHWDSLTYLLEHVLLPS
B5: SR-related and CTD-associated factor 8 (Homo sapiens), Q9UPN6 (parent)
chain: MEAVKTFNSELYSLNDYKPPISKAKMTQITKAAIKAIKFYKHVVQSVEKFIQKCKPEYKVPGLYVIDSIVRQSRHQFGQEKDVFAPRFSNNIISTFQNLYRCPGDDKSKIVRVLNLWQKNNVFKSEIIQPLLDMAAGIPPPVVTPVLASTTTAMSNTPGTPVTPVTPANVVQGLPDPWVSQITNTDTLAAVAQILQSPQGQQLQQLIQTLQIQQQKPQPSILQALDAGLVVQLQALTAQLTAAAAAANTLTPLEQGVSFNKKLMDRFDFGEDSEHSEEPKKEIPASQLSHVSESVNNSIFHQIAEQLQQQNLEHLRQQLLEQQQPQKATPQDSQEGTFGSEHSASPSQGSSQQHFLEPEVNLDDSIDIQQQDMDIDEGQDGVEEEVFEQEAKKVAVRSRSRTHSRSRSRSPRKRRSRSRSGSRKRKHRKRSRSRSRERKRKSSRSYSSERRAREREKERQKKGLPPIRSKTLSVCSTTLWVGQVDKKATQQDLTNLFEEFGQIESINMIPPRGCAYVCMVHRQDAFRALQKLSSGSYKIGSKVIKIAWALNKGVKTEYKQFWDVDLGVTYIPWEKVKVDDLEGFAEGGMIDQETVNTEWETVKSSEPVKETVQTTQSPTPVEKETVVTTQAEVFPPPVAMLQIPVAPAVPTVSLVPPAFPVSMPVPPPGFSPIPPPPFLRASFNPSQPPPGFMPPPVPPPVVPPPTIPPVVPTSLVQPSLSMTPETVKDVGFGSLVIPGGSVASNLATSALPAGNVFNAPTKQAEPEEKVPHLIDHQISSGENTRSVIPNDISSNAAILGGQPPNVTSNSGILGVQRPNVSSNSEILGVRPSNVSSSSGIIAAQPPNILNNSGILGIQPPSVSNSSGLLGVLPPNIPNNSGLVGVQPPNVPNTPGLLGTQPPAGPQNLPPLSIPNQRMPTMPMLDIRPGLIPQAPGPRFPLIQPGIPPQRGIPPPSVLDSALHPPPRGPFPPGDIFSQPERPFLAPGRQSVDNVTNPEKRIPLGNDNIQQEGDRDYRFPPIETRESISRPPPVDVRDVVGRPIDPREGPGRPPLDGRDHFGRPPVDIRENLVRPGIDHLGRRDHFGFNPEKPWGHRGDFDEREHRVLPVYGGPKGLHEERGRFRSGNYRFDPRSGPWNRGFGQEVHRDFDDRRRPWERQRDRDDRDFDFCREMNGNRLGRDRIQNTWVPPPHARVFDYFEGATSQRKGDNVPQVNGENTERHAQPPPIPVQNDPELYEKLTSSNEINKEKSDTVADIESEPVVESTETEGT
partner: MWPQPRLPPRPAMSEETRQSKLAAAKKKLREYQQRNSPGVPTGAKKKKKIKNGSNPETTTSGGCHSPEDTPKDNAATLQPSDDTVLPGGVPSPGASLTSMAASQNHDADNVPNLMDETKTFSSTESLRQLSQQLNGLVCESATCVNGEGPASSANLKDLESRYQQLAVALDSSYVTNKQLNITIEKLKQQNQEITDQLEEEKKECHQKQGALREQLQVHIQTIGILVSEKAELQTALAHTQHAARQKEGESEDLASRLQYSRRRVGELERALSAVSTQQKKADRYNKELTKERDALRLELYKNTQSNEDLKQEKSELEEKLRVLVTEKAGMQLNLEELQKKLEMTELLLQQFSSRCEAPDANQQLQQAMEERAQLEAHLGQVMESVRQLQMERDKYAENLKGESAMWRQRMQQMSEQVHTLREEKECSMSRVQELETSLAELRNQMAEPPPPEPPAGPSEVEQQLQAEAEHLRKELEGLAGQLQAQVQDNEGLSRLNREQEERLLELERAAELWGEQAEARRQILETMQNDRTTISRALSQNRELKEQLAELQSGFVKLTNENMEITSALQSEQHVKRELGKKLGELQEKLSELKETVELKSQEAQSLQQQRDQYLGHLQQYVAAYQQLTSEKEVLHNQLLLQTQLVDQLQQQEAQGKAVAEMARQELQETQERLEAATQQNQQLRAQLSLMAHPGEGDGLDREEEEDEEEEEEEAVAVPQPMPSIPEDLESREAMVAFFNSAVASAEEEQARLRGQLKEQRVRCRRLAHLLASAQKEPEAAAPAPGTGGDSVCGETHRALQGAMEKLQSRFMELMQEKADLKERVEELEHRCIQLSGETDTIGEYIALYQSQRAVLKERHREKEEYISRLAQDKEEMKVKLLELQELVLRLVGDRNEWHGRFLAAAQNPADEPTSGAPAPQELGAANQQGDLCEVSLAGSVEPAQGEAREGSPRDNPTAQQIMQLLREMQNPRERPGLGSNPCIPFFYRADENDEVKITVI

We go through ten variants from IntAct's records for PubMed 31515488.

The first experiment covers variants of B1. The conditions noted are these: with serf2_human SERF2, P84101.
Consider V78I, for which the “effect of a mutation on the interaction” value is reported as “with no effect”.
Still for that read-out and setting: as for S9Y, the entry is “disrupting interaction strength”; as for M270I, “with no effect”.

Another experiment covers variants of B2. To be noted: with zn446_human ZNF446, Q9NWS9.
Sequence of zn446_human ZNF446, Q9NWS9 (Q9NWS9 whole entry): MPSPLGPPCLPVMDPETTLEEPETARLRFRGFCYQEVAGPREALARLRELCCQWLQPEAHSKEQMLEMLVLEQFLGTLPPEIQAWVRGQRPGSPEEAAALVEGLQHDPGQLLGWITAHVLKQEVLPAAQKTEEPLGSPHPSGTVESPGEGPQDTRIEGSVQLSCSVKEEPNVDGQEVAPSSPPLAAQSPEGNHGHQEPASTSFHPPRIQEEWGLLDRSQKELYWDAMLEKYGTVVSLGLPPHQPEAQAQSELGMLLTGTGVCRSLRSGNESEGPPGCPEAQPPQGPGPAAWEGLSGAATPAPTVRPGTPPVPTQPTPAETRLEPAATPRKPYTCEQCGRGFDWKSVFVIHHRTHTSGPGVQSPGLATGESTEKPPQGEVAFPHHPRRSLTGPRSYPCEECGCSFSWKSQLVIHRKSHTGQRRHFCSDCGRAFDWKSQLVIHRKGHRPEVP
Turning to Q34R, the “effect of a mutation on the interaction” value is given as “with no effect”.

A further experiment covers variants of B3. The conditions noted are these: with gors2_human GORASP2, Q9H8Y8.
Take E43D: the “effect of a mutation on the interaction” value is “with no effect”.
On the same count and under the same terms, as for D183H, the entry is “with no effect”.

Another experiment covers variants of B3. The conditions noted are these: with prps2_human PRPS2, P11908.
On to E43D, for which the “effect of a mutation on the interaction” value is on record as “disrupting interaction strength”.
Take D183H: the “effect of a mutation on the interaction” value is given as “disrupting interaction strength”.

Variants of B3 are the subject of another experiment. The conditions noted are these: with gors2_human GORASP2, Q9H8Y8. The source holds these as a separate data set.
For D203H, the “effect of a mutation on the interaction” value is listed as “with no effect”.

In the next experiment the parent is B3. The conditions noted are these: with prps2_human PRPS2, P11908. The source holds these as a separate data set.
Turning to D203H, the “effect of a mutation on the interaction” value was “disrupting interaction strength”.

The variants in another experiment derive from B4. The conditions noted are these: with tmcc2_human TMCC2, O75069.
For V126M, the “effect of a mutation on the interaction” value is “with no effect”.
Same read-out and setting: the result for I501F reads “disrupting interaction strength”.

In another experiment the parent is B5. The conditions noted are these: with goga2_human GOLGA2, Q08379.
M1173V: the “effect of a mutation on the interaction” value is reported as “with no effect”.
